B1: full-length XRCC4 (natural protein, human, UniProt Q13426 1-336, looked up)
chain: MERKISRIHLVSEPSITHFLQVSWEKTLESGFVITLTDGHSAWTGTVSESEISQEADDMAMEKGKYVGELRKALLSGAGPADVYTFNFSKESCYFFFEKNLKDVSFRLGSFNLEKVENPAEVIRELICYCLDTIAENQAKNEHLQKENERLLRDWNDVQGRFEKCVSAKEALETDLYKRFILVLNEKKTKIRSLHNKLLNAAQEREKDIKQEGETAICSEMTADRDPVYDESTDEESENQTDLSGLASAAVSKDDSIISSLDVTDIAPSRKRRQRMQRNLGTEPKMAPQENQLQEKENSRPDSSLPETSKKEHISAENMSLETLRNSSPEDLFDEI
B2: XRCC4 1-161 (domain or fragment, human, UniProt Q13426 1-161, looked up)
chain: MERKISRIHLVSEPSITHFLQVSWEKTLESGFVITLTDGHSAWTGTVSESEISQEADDMAMEKGKYVGELRKALLSGAGPADVYTFNFSKESCYFFFEKNLKDVSFRLGSFNLEKVENPAEVIRELICYCLDTIAENQAKNEHLQKENERLLRDWNDVQGR
B3: XRCC4 1-140 (domain or fragment, human, UniProt Q13426 1-140, looked up)
chain: MERKISRIHLVSEPSITHFLQVSWEKTLESGFVITLTDGHSAWTGTVSESEISQEADDMAMEKGKYVGELRKALLSGAGPADVYTFNFSKESCYFFFEKNLKDVSFRLGSFNLEKVENPAEVIRELICYCLDTIAENQAK

What was measured:
SEC-MALS = target: the molecule itself; assay: SEC-MALS
SAXS = target: the molecule itself; assay: SAXS

Protein	stoichiometry N (SEC-MALS)	stoichiometry N (SAXS)
B1	4	–
B2	–	2
B3	–	2
